Results: the supplement of paper PMC5998384

What was measured:
[1] = tested on: HeLa Kyoto; assay: solubility in G1/S (NP-40 vs SDS abundance) (log2 ratio); higher = more soluble; settings: cell cycle stage: G1/S
[2] = tested on: HeLa Kyoto; assay: melting temperature (median over replicates), in situ; higher = more thermally stable
[3] = tested on: HeLa Kyoto; assay: solubility change mitosis vs G1/S (difference of NP-40 vs SDS log2 ratios) (log2 ratio difference); higher = more soluble in mitosis
[4] = tested on: HeLa Kyoto; assay: thermal stability score vs G1/S (z-score of summed log2 fold changes over temperatures); higher = more thermally stable than in G1/S
[5] = cell cycle stage: early G1 (4.5 h after nocodazole release)
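For melting temperature (median over replicates), in situ in this document: HeLa Kyoto cells synchronized by double thymidine or nocodazole block, proteins quantified by TMT10plex mass spectrometry, three independent biological replicates.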
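For solubility change mitosis vs G1/S (difference of NP-40 vs SDS log2 ratios) in this document: synchronized HeLa Kyoto cells (double thymidine block for G1/S, nocodazole release for mitosis), protein amounts in NP-40 versus SDS lysates quantified by mass spectrometry, three biological replicates.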
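For solubility in G1/S (NP-40 vs SDS abundance) in this document: HeLa Kyoto cells arrested at G1/S by double thymidine block, proteins quantified by TMT10plex mass spectrometry in mild NP-40 versus SDS extracts, three biological replicates.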
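For thermal stability score vs G1/S (z-score of summed log2 fold changes over temperatures) in this document: synchronized HeLa Kyoto cells, proteins quantified by TMT10plex mass spectrometry, three biological replicates, mitosis taken 0.5 h after nocodazole release, G1/S directly after double thymidine block.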

MADTDLFMECEEEELEPWQKISDVIEDSVVEDYNSVDKTTTVSVSQQPVSAPVPIAAHASVAGHLSTSTTVSSSGAQNSDSTKKTLVTLIANNNAGNPLVQQGGQPLILTQNPAPGLGTMVTQPVLRPVQVMQNANHVTSSPVASQPIFITTQGFPVRNVRPVQNAMNQVGIVLNVQQGQTVRPITLVPAPGTQFVKPTVGVPQVFSQMTPVRPGSTMPVRPTTNTFTTVIPATLTIRSTVPQSQSQQTKSTPSTSTTPTATQPTSLGQLAVQSPGQSNQTTNPKLAPSFPSPPAVSIASFVTVKRPGVTGENSNEVAKLVNTLNTIPSLGQSPGPVVVSNNSSAHGSQRTSGPESSMKVTSSIPVFDLQDGGRKICPRCNAQFRVTEALRGHMCYCCPEMVEYQKKGKSLDSEPSVPSAAKPPSPEKTAPVASTPSSTPIPALSPPTKVPEPNENVGDAVQTKLIMLVDDFYYGRDGGKVAQLTNFPKVATSFRCPHCTKRLKNNIRFMNHMKHHVELDQQNGEVDGHTICQHCYRQFSTPFQLQCHLENVHSPYESTTKCKICEWAFESEPLFLQHMKDTHKPGEMPYVCQVCQYRSSLYSEVDVHFRMIHEDTRHLLCPYCLKVFKNGNAFQQHYMRHQKRNVYHCNKCRLQFLFAKDKIEHKLQHHKTFRKPKQLEGLKPGTKVTIRASRGQPRTVPVSSNDTPPSALQEAAPLTSSMDPLPVFLYPPVQRSIQKRAVRKMSVMGRQTCLECSFEIPDFPNHFPTYVHCSLCRYSTCCSRAYANHMINNHVPRKSPKYLALFKNSVSGIKLACTSCTFVTSVGDAMAKHLVFNPSHRSSSILPRGLTWIAHSRHGQTRDRVHDRNVKNMYPPPSFPTNKAATVKSAGATPAEPEELLTPLAPALPSPASTATPPPTPTHPQALALPPLATEGAECLNVDDQDEGSPVTQEPELASGGGGSGGVGKKEQLSVKKLRVVLFALCCNTEQAAEHFRNPQRRIRRWLRRFQASQGENLEGKYLSFEAEEKLAEWVLTQREQQLPVNEETLFQKATKIGRSLEGGFKISYEWAVRFMLRHHLTPHARRAVAHTLPKDVAENAGLFIDFVQRQIHNQDLPLSMIVAIDEISLFLDTEVLSSDDRKENALQTVGTGEPWCDVVLAILADGTVLPTLVFYRGQMDQPANMPDSILLEAKESGYSDDEIMELWSTRVWQKHTACQRSKGMLVMDCHRTHLSEEVLAMLSASSTLPAVVPAGCSSKIQPLDVCIKRTVKNFLHKKWKEQAREMADTACDSDVLLQLVLVWLGEVLGVIGDCPELVQRSFLVASVLPGPDGNINSPTRNADMQEELIASLEEQLKLSGEHSESSTPRPRSSPEETIEPESLHQLFEGESETESFYGFEEADLDLMEI [POGZ]
solubility in G1/S (log2) [1]: -0.704 | melting temperature ([2]; cell cycle stage: mitosis): 49.5 °C | solubility change mitosis (log2) [3]: 0.341 | thermal stability score [4, 5]: 1.1 | thermal stability score ([4]; cell cycle stage: mitosis): 2.58

MAAGAAEAAVAAVEEVGSAGQFEELLRLKAKSLLVVHFWAPWAPQCAQMNEVMAELAKELPQVSFVKLEAEGVPEVSEKYEISSVPTFLFFKNSQKIDRLDGAHAPELTKKVQRHASSGSFLPSANEHLKEDLNLRLKKLTHAAPCMLFMKGTPQEPRCGFSKQMVEILHKHNIQFSSFDIFSDEEVRQGLKAYSSWPTYPQLYVSGELIGGLDIIKELEASEELDTICPKAPKLEERLKVLTNKASVMLFMKGNKQEAKCGFSKQILEILNSTGVEYETFDILEDEEVRQGLKAYSNWPTYPQLYVKGELVGGLDIVKELKENGELLPILRGEN [GLRX3]
solubility in G1/S (log2) [1]: 0.354 | melting temperature ([2]; cell cycle stage: G1/S): 49.6 °C | melting temperature ([2]; cell cycle stage: mitosis): 49.9 °C | solubility change mitosis (log2) [3]: -0.111 | thermal stability score [4, 5]: 2.12 | thermal stability score ([4]; cell cycle stage: mitosis): 1.6

METGAAELYDQALLGILQHVGNVQDFLRVLFGFLYRKTDFYRLLRHPSDRMGFPPGAAQALVLQVFKTFDHMARQDDEKRRQELEEKIRRKEEEEAKTVSAAAAEKEPVPVPVQEIEIDSTTELDGHQEVEKVQPPGPVKEMAHGSQEAEAPGAVAGAAEVPREPPILPRIQEQFQKNPDSYNGAVRENYTWSQDYTDLEVRVPVPKHVVKGKQVSVALSSSSIRVAMLEENGERVLMEGKLTHKINTESSLWSLEPGKCVLVNLSKVGEYWWNAILEGEEPIDIDKINKERSMATVDEEEQAVLDRLTFDYHQKLQGKPQSHELKVHEMLKKGWDAEGSPFRGQRFDPAMFNISPGAVQF [NUDCD3]
solubility in G1/S (log2) [1]: 0.212 | melting temperature ([2]; cell cycle stage: G1/S): 51 °C | melting temperature ([2]; cell cycle stage: mitosis): 50.9 °C | solubility change mitosis (log2) [3]: -0.097 | thermal stability score [4, 5]: 0.442 | thermal stability score ([4]; cell cycle stage: mitosis): 0.3

TARBP1
solubility in G1/S (log2) [1]: -0.262 | melting temperature ([2]; cell cycle stage: G1/S): 52.3 °C | melting temperature ([2]; cell cycle stage: mitosis): 51.6 °C | solubility change mitosis (log2) [3]: -0.207 | thermal stability score [4, 5]: 0.335 | thermal stability score ([4]; cell cycle stage: mitosis): -0.385
